# Laboratory results reported in the Human Domainome abundance scans (Beltran et al. 2025).
# ± gives the uncertainty stated by the source.
# B1: Retinoic acid receptor beta, residues 85 to 161; numbered along this chain, P10826 (parent)
# chain: YKPCFVCQDKSSGYHYGVSACEGCKGFFRRSIQKNMIYTCHRDKNCVINKVTRNRCQYCRLQKCFEVGMSKESVRND
# Variants of: B1
# Assay: abundance fitness (aPCA) (normalised: wild type 0, dead -1); higher = more abundant; growth selection in yeast, the domain comes from the species named
# Details: Homo sapiens
row,Variant,abundance fitness
1,YKPCFVCQDKSSGYHYGVSACEGCKGFFRRSIQKNMIYTCHRDKNCVINKVTRNRCQYQRLQKCFEVGMSKESVRND [C59Q],-0.983 ± 0.3
2,YKPCFVCQDKSSGYHYGVSACEGCKGFFRRSIQKNMIYTCHRDKNCVINKVTRNRCQYLRLQKCFEVGMSKESVRND [C59L],-0.84 ± 0.12
3,YKPCFVCQDKSSGYHYGVSACEGCKGFFRRSIQKNMIYTCHRDKNCVINKVTRNRCQYVRLQKCFEVGMSKESVRND [C59V],-0.941 ± 0.14
4,YKPCFVCQDKSSGYHYGVSACEGCKGFFRRSIQKNMIYTCHRDKNCVINKVTRNRCQYNRLQKCFEVGMSKESVRND [C59N],-0.834 ± 0.33
5,YKPCFVCQDKSSGYHYGVSACEGCKGFFRRSIQKNMIYTCHRDKNCVINKVTRNRCQYPRLQKCFEVGMSKESVRND [C59P],-0.777 ± 0.18
6,YKPCFVCQDKSSGYHYGVSACEGCKGFFRRSIQKNMIYTCHRDKNCVINKVTRNRCQYRRLQKCFEVGMSKESVRND [C59R],-0.869 ± 0.15
7,YKPCFVCQDKSSGYHYGVSACEGCKGFFRRSIQKNMIYTCHRDKNCVINKVTRNRCQYSRLQKCFEVGMSKESVRND [C59S],-0.294 ± 0.084
8,YKPCFVCQDKSSGYHYGVSACEGCKGFFRRSIQKNMIYTCHRDKNCVINKVTRNRCQYWRLQKCFEVGMSKESVRND [C59W],-0.823 ± 0.21
9,YKPCFVCQDKSSGYHYGVSACEGCKGFFRRSIQKNMIYTCHRDKNCVINKVTRNRCQYMRLQKCFEVGMSKESVRND [C59M],-0.732 ± 0.15
10,YKPCFVCQDKSSGYHYGVSACEGCKGFFRRSIQKNMIYTCHRDKNCVINKVTRNRCQYYRLQKCFEVGMSKESVRND [C59Y],-0.831 ± 0.33
11,YKPCFVCQDKSSGYHYGVSACEGCKGFFRRSIQKNMIYTCHRDKNCVINKVTRNRCQYTRLQKCFEVGMSKESVRND [C59T],-0.499 ± 0.15
12,YKPCFVCQDKSSGYHYGVSACEGCKGFFRRSIQKNMIYTCHRDKNCVINKVTRNRCQYCNLQKCFEVGMSKESVRND [R60N],-0.845 ± 0.22
13,YKPCFVCQDKSSGYHYGVSACEGCKGFFRRSIQKNMIYTCHRDKNCVINKVTRNRCQYCWLQKCFEVGMSKESVRND [R60W],0.114 ± 0.044
14,YKPCFVCQDKSSGYHYGVSACEGCKGFFRRSIQKNMIYTCHRDKNCVINKVTRNRCQYCDLQKCFEVGMSKESVRND [R60D],-0.901 ± 0.21
15,YKPCFVCQDKSSGYHYGVSACEGCKGFFRRSIQKNMIYTCHRDKNCVINKVTRNRCQYCELQKCFEVGMSKESVRND [R60E],-0.598 ± 0.14
16,YKPCFVCQDKSSGYHYGVSACEGCKGFFRRSIQKNMIYTCHRDKNCVINKVTRNRCQYCPLQKCFEVGMSKESVRND [R60P],-0.722 ± 0.14
17,YKPCFVCQDKSSGYHYGVSACEGCKGFFRRSIQKNMIYTCHRDKNCVINKVTRNRCQYCKLQKCFEVGMSKESVRND [R60K],-0.039 ± 0.052
18,YKPCFVCQDKSSGYHYGVSACEGCKGFFRRSIQKNMIYTCHRDKNCVINKVTRNRCQYCILQKCFEVGMSKESVRND [R60I],-0.653 ± 0.16
19,YKPCFVCQDKSSGYHYGVSACEGCKGFFRRSIQKNMIYTCHRDKNCVINKVTRNRCQYCMLQKCFEVGMSKESVRND [R60M],0.199 ± 0.038
20,YKPCFVCQDKSSGYHYGVSACEGCKGFFRRSIQKNMIYTCHRDKNCVINKVTRNRCQYCTLQKCFEVGMSKESVRND [R60T],-0.001 ± 0.052
21,YKPCFVCQDKSSGYHYGVSACEGCKGFFRRSIQKNMIYTCHRDKNCVINKVTRNRCQYCQLQKCFEVGMSKESVRND [R60Q],-0.003 ± 0.052
22,YKPCFVCQDKSSGYHYGVSACEGCKGFFRRSIQKNMIYTCHRDKNCVINKVTRNRCQYCGLQKCFEVGMSKESVRND [R60G],-0.491 ± 0.069
23,YKPCFVCQDKSSGYHYGVSACEGCKGFFRRSIQKNMIYTCHRDKNCVINKVTRNRCQYCLLQKCFEVGMSKESVRND [R60L],0.21 ± 0.035
24,YKPCFVCQDKSSGYHYGVSACEGCKGFFRRSIQKNMIYTCHRDKNCVINKVTRNRCQYCSLQKCFEVGMSKESVRND [R60S],-0.583 ± 0.08

row,Variant,abundance fitness
1,YKPCFVCQDKSSGYHYGVSACEGCKGFFRRSIQKNMIYTCHRDKNCVINKVTRNRCQYCYLQKCFEVGMSKESVRND [R60Y],-0.002 ± 0.062
2,YKPCFVCQDKSSGYHYGVSACEGCKGFFRRSIQKNMIYTCHRDKNCVINKVTRNRCQYCVLQKCFEVGMSKESVRND [R60V],-0.369 ± 0.052
3,YKPCFVCQDKSSGYHYGVSACEGCKGFFRRSIQKNMIYTCHRDKNCVINKVTRNRCQYCCLQKCFEVGMSKESVRND [R60C],-0.155 ± 0.065
4,YKPCFVCQDKSSGYHYGVSACEGCKGFFRRSIQKNMIYTCHRDKNCVINKVTRNRCQYCRIQKCFEVGMSKESVRND [L61I],-0.207 ± 0.087
5,YKPCFVCQDKSSGYHYGVSACEGCKGFFRRSIQKNMIYTCHRDKNCVINKVTRNRCQYCRMQKCFEVGMSKESVRND [L61M],-0.023 ± 0.045
6,YKPCFVCQDKSSGYHYGVSACEGCKGFFRRSIQKNMIYTCHRDKNCVINKVTRNRCQYCRWQKCFEVGMSKESVRND [L61W],-0.605 ± 0.078
7,YKPCFVCQDKSSGYHYGVSACEGCKGFFRRSIQKNMIYTCHRDKNCVINKVTRNRCQYCRAQKCFEVGMSKESVRND [L61A],-0.591 ± 0.077
8,YKPCFVCQDKSSGYHYGVSACEGCKGFFRRSIQKNMIYTCHRDKNCVINKVTRNRCQYCRGQKCFEVGMSKESVRND [L61G],-0.605 ± 0.069
9,YKPCFVCQDKSSGYHYGVSACEGCKGFFRRSIQKNMIYTCHRDKNCVINKVTRNRCQYCRDQKCFEVGMSKESVRND [L61D],-0.516 ± 0.14
10,YKPCFVCQDKSSGYHYGVSACEGCKGFFRRSIQKNMIYTCHRDKNCVINKVTRNRCQYCRYQKCFEVGMSKESVRND [L61Y],-0.181 ± 0.098
11,YKPCFVCQDKSSGYHYGVSACEGCKGFFRRSIQKNMIYTCHRDKNCVINKVTRNRCQYCRCQKCFEVGMSKESVRND [L61C],-0.657 ± 0.16
12,YKPCFVCQDKSSGYHYGVSACEGCKGFFRRSIQKNMIYTCHRDKNCVINKVTRNRCQYCRFQKCFEVGMSKESVRND [L61F],-0.13 ± 0.083
13,YKPCFVCQDKSSGYHYGVSACEGCKGFFRRSIQKNMIYTCHRDKNCVINKVTRNRCQYCRRQKCFEVGMSKESVRND [L61R],-0.8 ± 0.086
14,YKPCFVCQDKSSGYHYGVSACEGCKGFFRRSIQKNMIYTCHRDKNCVINKVTRNRCQYCRQQKCFEVGMSKESVRND [L61Q],-0.336 ± 0.088
15,YKPCFVCQDKSSGYHYGVSACEGCKGFFRRSIQKNMIYTCHRDKNCVINKVTRNRCQYCRVQKCFEVGMSKESVRND [L61V],-0.499 ± 0.059
16,YKPCFVCQDKSSGYHYGVSACEGCKGFFRRSIQKNMIYTCHRDKNCVINKVTRNRCQYCRSQKCFEVGMSKESVRND [L61S],-0.995 ± 0.15
17,YKPCFVCQDKSSGYHYGVSACEGCKGFFRRSIQKNMIYTCHRDKNCVINKVTRNRCQYCRKQKCFEVGMSKESVRND [L61K],-0.946 ± 0.2
18,YKPCFVCQDKSSGYHYGVSACEGCKGFFRRSIQKNMIYTCHRDKNCVINKVTRNRCQYCRPQKCFEVGMSKESVRND [L61P],-0.754 ± 0.19
19,YKPCFVCQDKSSGYHYGVSACEGCKGFFRRSIQKNMIYTCHRDKNCVINKVTRNRCQYCREQKCFEVGMSKESVRND [L61E],-0.635 ± 0.083
20,YKPCFVCQDKSSGYHYGVSACEGCKGFFRRSIQKNMIYTCHRDKNCVINKVTRNRCQYCRHQKCFEVGMSKESVRND [L61H],-0.503 ± 0.33
21,YKPCFVCQDKSSGYHYGVSACEGCKGFFRRSIQKNMIYTCHRDKNCVINKVTRNRCQYCRLQQCFEVGMSKESVRND [K63Q],-0.305 ± 0.075
22,YKPCFVCQDKSSGYHYGVSACEGCKGFFRRSIQKNMIYTCHRDKNCVINKVTRNRCQYCRLQECFEVGMSKESVRND [K63E],-0.588 ± 0.087
23,YKPCFVCQDKSSGYHYGVSACEGCKGFFRRSIQKNMIYTCHRDKNCVINKVTRNRCQYCRLQNCFEVGMSKESVRND [K63N],-0.519 ± 0.2
24,YKPCFVCQDKSSGYHYGVSACEGCKGFFRRSIQKNMIYTCHRDKNCVINKVTRNRCQYCRLQICFEVGMSKESVRND [K63I],-0.321 ± 0.13

row,Variant,abundance fitness
1,YKPCFVCQDKSSGYHYGVSACEGCKGFFRRSIQKNMIYTCHRDKNCVINKVTRNRCQYCRLQGCFEVGMSKESVRND [K63G],-0.525 ± 0.044
2,YKPCFVCQDKSSGYHYGVSACEGCKGFFRRSIQKNMIYTCHRDKNCVINKVTRNRCQYCRLQPCFEVGMSKESVRND [K63P],-0.847 ± 0.21
3,YKPCFVCQDKSSGYHYGVSACEGCKGFFRRSIQKNMIYTCHRDKNCVINKVTRNRCQYCRLQLCFEVGMSKESVRND [K63L],-0.272 ± 0.059
4,YKPCFVCQDKSSGYHYGVSACEGCKGFFRRSIQKNMIYTCHRDKNCVINKVTRNRCQYCRLQHCFEVGMSKESVRND [K63H],-0.027 ± 0.12
5,YKPCFVCQDKSSGYHYGVSACEGCKGFFRRSIQKNMIYTCHRDKNCVINKVTRNRCQYCRLQACFEVGMSKESVRND [K63A],-0.306 ± 0.06
6,YKPCFVCQDKSSGYHYGVSACEGCKGFFRRSIQKNMIYTCHRDKNCVINKVTRNRCQYCRLQCCFEVGMSKESVRND [K63C],-0.641 ± 0.18
7,YKPCFVCQDKSSGYHYGVSACEGCKGFFRRSIQKNMIYTCHRDKNCVINKVTRNRCQYCRLQDCFEVGMSKESVRND [K63D],-0.413 ± 0.12
8,YKPCFVCQDKSSGYHYGVSACEGCKGFFRRSIQKNMIYTCHRDKNCVINKVTRNRCQYCRLCKCFEVGMSKESVRND [Q62C],-0.268 ± 0.072
9,YKPCFVCQDKSSGYHYGVSACEGCKGFFRRSIQKNMIYTCHRDKNCVINKVTRNRCQYCRLKKCFEVGMSKESVRND [Q62K],0.125 ± 0.051
10,YKPCFVCQDKSSGYHYGVSACEGCKGFFRRSIQKNMIYTCHRDKNCVINKVTRNRCQYCRLMKCFEVGMSKESVRND [Q62M],-0.033 ± 0.051
11,YKPCFVCQDKSSGYHYGVSACEGCKGFFRRSIQKNMIYTCHRDKNCVINKVTRNRCQYCRLLKCFEVGMSKESVRND [Q62L],-0.042 ± 0.039
12,YKPCFVCQDKSSGYHYGVSACEGCKGFFRRSIQKNMIYTCHRDKNCVINKVTRNRCQYCRLGKCFEVGMSKESVRND [Q62G],-0.317 ± 0.05
13,YKPCFVCQDKSSGYHYGVSACEGCKGFFRRSIQKNMIYTCHRDKNCVINKVTRNRCQYCRLVKCFEVGMSKESVRND [Q62V],0.026 ± 0.034
14,YKPCFVCQDKSSGYHYGVSACEGCKGFFRRSIQKNMIYTCHRDKNCVINKVTRNRCQYCRLWKCFEVGMSKESVRND [Q62W],-0.203 ± 0.047
15,YKPCFVCQDKSSGYHYGVSACEGCKGFFRRSIQKNMIYTCHRDKNCVINKVTRNRCQYCRLPKCFEVGMSKESVRND [Q62P],-0.814 ± 0.33
16,YKPCFVCQDKSSGYHYGVSACEGCKGFFRRSIQKNMIYTCHRDKNCVINKVTRNRCQYCRLHKCFEVGMSKESVRND [Q62H],0.123 ± 0.081
17,YKPCFVCQDKSSGYHYGVSACEGCKGFFRRSIQKNMIYTCHRDKNCVINKVTRNRCQYCRLNKCFEVGMSKESVRND [Q62N],-0.056 ± 0.087
18,YKPCFVCQDKSSGYHYGVSACEGCKGFFRRSIQKNMIYTCHRDKNCVINKVTRNRCQYCRLSKCFEVGMSKESVRND [Q62S],0.012 ± 0.041
19,YKPCFVCQDKSSGYHYGVSACEGCKGFFRRSIQKNMIYTCHRDKNCVINKVTRNRCQYCRLIKCFEVGMSKESVRND [Q62I],0.018 ± 0.074
20,YKPCFVCQDKSSGYHYGVSACEGCKGFFRRSIQKNMIYTCHRDKNCVINKVTRNRCQYCRLEKCFEVGMSKESVRND [Q62E],0.017 ± 0.059
21,YKPCFVCQDKSSGYHYGVSACEGCKGFFRRSIQKNMIYTCHRDKNCVINKVTRNRCQYCRLDKCFEVGMSKESVRND [Q62D],-0.107 ± 0.057
22,YKPCFVCQDKSSGYHYGVSACEGCKGFFRRSIQKNMIYTCHRDKNCVINKVTRNRCQYCRLAKCFEVGMSKESVRND [Q62A],0.043 ± 0.045
23,YKPCFVCQDKSSGYHYGVSACEGCKGFFRRSIQKNMIYTCHRDKNCVINKVTRNRCQYCRLTKCFEVGMSKESVRND [Q62T],-0.004 ± 0.061
